In US20010029034A1:

Assays:
[1] = tested on: His-tagged Cripto (a TGF-a family member)
[2] = tested on: T1, first Kunitz-type domain of the TFPI-3 protein (TFPI-3-1), His-tagged, expressed in E. coli
T1 sequence: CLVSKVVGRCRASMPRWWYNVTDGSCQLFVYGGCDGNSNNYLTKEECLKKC

Trypsin (Sigma) = assay: cell-based or functional assay

| trypsin activity inhibited, 5.00 dose of TFPI-3-1 (Trypsin (Sigma)) | trypsin activity left against buffer only samples, 10 of TFPI-3-1, duplicate samples (Trypsin (Sigma)) | trypsin activity left against the buffer-only control, 10.00 dose of TFPI-3-1 (Trypsin (Sigma)) | Substance | trypsin activity on TAME substrate, same concentrations of Cripto as control [1] | trypsin activity on TAME substrate (absorbance at 247 nm), 1.25 dose of TFPI-3-1 [2] | trypsin activity on TAME substrate (absorbance at 247 nm), 2.50 dose of TFPI-3-1 [2] |
| --- | --- | --- | --- | --- | --- | --- |
|  |  |  | Trypsin (Sigma) | no trypsin inhibiting activity could be observed | did not appear to inhibit trypsin activity at 1.25 and 2.50 mg doses | did not appear to inhibit trypsin activity at 1.25 and 2.50 mg doses |
| 60% | 7% | 13% | first Kunitz-type domain of the TFPI-3 protein (TFPI-3-1), His-tagged, expressed in E. coli (from UniProt O43291 38-88) |  |  |  |
